B1: Vascular endothelial growth factor receptor 1 (Homo sapiens), P17948 (parent)
chain: MVSYWDTGVLLCALLSCLLLTGSSSGSKLKDPELSLKGTQHIMQAGQTLHLQCRGEAAHKWSLPEMVSKESERLSITKSACGRNGKQFCSTLTLNTAQANHTGFYSCKYLAVPTSKKKETESAIYIFISDTGRPFVEMYSEIPEIIHMTEGRELVIPCRVTSPNITVTLKKFPLDTLIPDGKRIIWDSRKGFIISNATYKEIGLLTCEATVNGHLYKTNYLTHRQTNTIIDVQISTPRPVKLLRGHTLVLNCTATTPLNTRVQMTWSYPDEKNKRASVRRRIDQSNSHANIFYSVLTIDKMQNKDKGLYTCRVRSGPSFKSVNTSVHIYDKAFITVKHRKQQVLETVAGKRSYRLSMKVKAFPSPEVVWLKDGLPATEKSARYLTRGYSLIIKDVTEEDAGNYTILLSIKQSNVFKNLTATLIVNVKPQIYEKAVSSFPDPALYPLGSRQILTCTAYGIPQPTIKWFWHPCNHNHSEARCDFCSNNEESFILDADSNMGNRIESITQRMAIIEGKNKMASTLVVADSRISGIYICIASNKVGTVGRNISFYITDVPNGFHVNLEKMPTEGEDLKLSCTVNKFLYRDVTWILLRTVNNRTMHYSISKQKMAITKEHSITLNLTIMNVSLQDSGTYACRARNVYTGEEILQKKEITIRDQEAPYLLRNLSDHTVAISSSTTLDCHANGVPEPQITWFKNNHKIQQEPGIILGPGSSTLFIERVTEEDEGVYHCKATNQKGSVESSAYLTVQGTSDKSNLELITLTCTCVAATLFWLLLTLFIRKMKRSSSEIKTDYLSIIMDPDEVPLDEQCERLPYDASKWEFARERLKLGKSLGRGAFGKVVQASAFGIKKSPTCRTVAVKMLKEGATASEYKALMTELKILTHIGHHLNVVNLLGACTKQGGPLMVIVEYCKYGNLSNYLKSKRDLFFLNKDAALHMEPKKEKMEPGLEQGKKPRLDSVTSSESFASSGFQEDKSLSDVEEEEDSDGFYKEPITMEDLISYSFQVARGMEFLSSRKCIHRDLAARNILLSENNVVKICDFGLARDIYKNPDYVRKGDTRLPLKWMAPESIFDKIYSTKSDVWSYGVLLWEIFSLGGSPYPGVQMDEDFCSRLREGMRMRAPEYSTPEIYQIMLDCWHRDPKERPRFAELVEKLGDLLQANVQQDGKDYIPINAILTGNSGFTYSTPAFSEDFFKESISAPKFNSGSSDDVRYVNAFKFMSLERIKTFEELLPNATSMFDDYQGDSSTLLASPMLKRFTWTDSKPKASLKIDLRVTSKSKESGLSDVSRPSFCHSSCGHVSEGKRRFTYDHAELERKIACCSPPPDYNSVVLYSTPPI

Variants of: B1
Details: with p85a_human PIK3R1, P27986
Sequence of p85a_human PIK3R1, P27986 (P27986 whole entry): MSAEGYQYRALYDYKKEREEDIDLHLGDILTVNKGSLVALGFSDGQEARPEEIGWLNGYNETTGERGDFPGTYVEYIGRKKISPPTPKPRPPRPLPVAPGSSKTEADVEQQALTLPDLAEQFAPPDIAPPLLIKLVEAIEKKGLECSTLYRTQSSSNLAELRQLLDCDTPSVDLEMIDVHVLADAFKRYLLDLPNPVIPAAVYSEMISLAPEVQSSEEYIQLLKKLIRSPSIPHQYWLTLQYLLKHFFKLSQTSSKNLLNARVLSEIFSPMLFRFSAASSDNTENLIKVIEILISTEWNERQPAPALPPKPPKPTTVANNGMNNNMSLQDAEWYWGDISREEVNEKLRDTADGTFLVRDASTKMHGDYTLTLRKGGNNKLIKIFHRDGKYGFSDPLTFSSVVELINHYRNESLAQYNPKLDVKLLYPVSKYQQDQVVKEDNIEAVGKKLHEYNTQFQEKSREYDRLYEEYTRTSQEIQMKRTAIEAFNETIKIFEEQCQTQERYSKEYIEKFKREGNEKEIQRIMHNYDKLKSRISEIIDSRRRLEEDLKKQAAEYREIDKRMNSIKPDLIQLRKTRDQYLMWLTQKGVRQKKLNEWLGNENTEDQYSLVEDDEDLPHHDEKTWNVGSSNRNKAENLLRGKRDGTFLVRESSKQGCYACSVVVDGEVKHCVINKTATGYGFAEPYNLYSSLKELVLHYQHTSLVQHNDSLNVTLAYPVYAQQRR

| Variant | effect of a mutation on the interaction |
| --- | --- |
| Y1213F | disrupting interaction |
| Y1130F | with no effect |

Variants of: B1
Details: with p85a_human PIK3R1, P27986
Remark: another data set of the same source

| Variant | effect of a mutation on the interaction |
| --- | --- |
| Y1327F | with no effect |
| K861A | disrupting interaction |
| Y1130F | decreasing interaction |
| Y1309F | with no effect |
| Y1124F;Y1184F;Y1333F | with no effect |
